# Assay results reported in the RNAGym collection of RNA variant scans (doi:10.1073/pnas.2313332121).
# Variants at the floor of the assay were thinned out.
# B1: TPR 5TU (parent)
# chain: GGAUCUUCUCGAUCUAACAAAAAAGACAAAUCUGCCACAAAGCUUGAGAGCAUCUUCGGAUGCAGAGGCGGCAGCCUUCGGUGGCGCGAUAGCGCCAACGUUCUCAACUAUGACACGCAAAACGCGUGCUCCGUUGAAUGGAGUUUAUCAUG
# Variants of: B1
# Assay: polymerase ribozyme fitness, log enrichment relative to wild type (log ratio); higher = more active; in vitro selection for triplet polymerase activity
# Summary of the method: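 Fitness measures genotype enrichment against wild-type enrichment on a logarithmic scale, with inverse-variance-weighted averaging of replicates. The logarithm is base 2, and genotypes were kept only with ≥10 input reads and ≥1 read per output in Illumina sequencing. The sequenced libraries came from one triplicate in vitro selection round, including frozen incubation at −7 °C, of PCR-built, transcribed mutant libraries of each subunit of a heterodimeric triplet polymerase ribozyme.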
row,Variant,polymerase ribozyme fitness (log ratio)
1,GGAUCUUCUCGAUCAAACAAAAAAGACAAAUCUGCCACAAAGCUUGAGAUCAUCUUCGGAUGCAGAGGCGGCAGCCUUCGGUGGCGCGAUAGCGGCAACGUUCUCAACUAUGACACGCAAAACGCGUGCUCGGUUGAAUGGAGUUUAUCAUG [U15A G50U C95G C132G],≤ -4.2
2,GGAUCUUCUCGAUCCAACAUAAAAGACAAAUCUGCCACAAUGCUUGAGAGCAUCUUGGGAUGCAGAGGCGGCAGCCUUCGGUGGCGCGAUAGCGCCAGCGUUCUCAACUAUGACACGCAAAACGCGUGCUCCGUUGAAUGGAGUUUAUCAUG [U15C A20U A41U C57G A98G],-1.74
3,GGAUCUUCUCGAUCAAACAAAAAAGACAAAUCUGCCACAAAGCUUGAGAGCAUCUUCGGAUGCAGAGGCGGCAGCCUUCGGUGGCGCGAUAGCGCCAACGUUCUCAACUAUGACACGCAAAACGCGUGCUCCGUUGAAUGGAGUCUAUCAUG [U15A U145C],0.0727
4,GGAUCUUCUCGAUCCAACGAAAAAGACAAAUCUGCCACAAAGCUUGAGAGCAUCUUCGGAUGCAGAGGGGGCAGCAUUGGGUGUCGCGAUAGCGACAACGUUCUCAACUUUGACACGCAAAACGCGUGCUCCGUUGAAUGGAGUUUAUCAUG [U15C A19G C69G C76A C79G G84U C95A A110U],≤ -4.2
5,GGAUCUUCUCGAUCCAACAAAAAAGACAAAUCUGCCACAUAGCUUGAGAGCAACUUCGGAUGCAGAGGCGGCAGCCUUCGGUGCCGCGAUAGCGCCAACGUUCUCAACUAUGACACGCAAAACGCGUGCUCCGUUGAAUGGAGUUUAUCAUG [U15C A40U U53A G84C],-1.96
6,GGAUCUUCUCGAUCCAACAAAAAAGACAAAUCUGCCUCAAAGCUUGAGAGCAUCUUCGGAUGCAGAGGCGGCAGCCUUCGGUGGCGCGAUAGCGCCAACGUUCUCAACUAUGACACGUAAAACGCGUGCUCCGUUGAAUGGAGUUUAUCAUG [U15C A37U C118U],-0.404
7,GGAUCUUCUCGAUCCAACAACAAAGACAAAUCUGCCACAAAGCUUGACAGCAUCUUCGGAUGCAGAGGCGGCAGCCUUCGGUGGCGCGAUAGUGCCAACGUUCUCAACUAUGACACGCAAAACGCGUGCUCCGUUGAAUGGAGUUGAUCAUG [U15C A21C G48C C93U U146G],-0.835
8,GGAUCUUCUCGAUCCAACAAAAAAGACAAAUCUGCCACAAAGCUUGAGAGCAUCUUCGGAUGCCGAGGCGACAGCCUUCGGUGGCGCGAUAGCGCCAACAUUCUCAACUAUGACACGUAAAACGCGUGCUCCGUUGAAUGGAGUUUAUCAUG [U15C A64C G71A G100A C118U],≤ -4.2
9,GGAUCUUCUCGAUCCAACAAAAAAGACAAAUCUGCCACAAAGCUUGAGAGCAUCUUCGGAUGCAGAGGCGGCAGCCUUCGGUGGCGCGAUAGCGCCAACGUUCUCAACUAUGACACGCAAAACGCGUGCUCCGUUGAAUGGAGUUUAUCAUG [U15C],0.917
10,GGAUCUUCUCGAUCCAACAAAAAAGUCAAAUCUGCCACAAAGCUUGAGAGCAUCUUGGUAUGCAGAGGCGGCAGCCUUCGGUGGCGAAAUAGCGCCAACGUUCUCAUCUAUGACACGCAAAACGCGUGCUCCGUUGAAUGGAGUUUAGCAUG [U15C A26U C57G G59U C87A G88A A107U U148G],≤ -4.2
11,GGAUCUUCUCGAUCCAACAGAAAAGACAAAUCUGCCACAAAGCUUGAGAGCAUCUUCGGAUGCAGAGGCGGCAGCCUUCGGUGGCGCGAUAGCGCCGACGUUCUCAACUAUGACACGCAAAACGCGUGCUCCGUUGAAUAGAGUUUAUCAUG [U15C A20G A97G G140A],-3.64
12,GGAUCUUCUCGAUCCAACAGUAAAGACAAAUCUGCCACUAAGCUUGAGAGCAUCUUCGGAUGCAGAGGCGGCAGCUUUCGGUGGAGCGAUAGCGCCAACGUUAUCAAUUAUGACACGCAAAACGCGUGCUCCGUUGAAUGGAGUUUAUCAUG [U15C A20G A21U A39U C76U C85A C103A C108U],≤ -4.2
13,GGAUCUUCUCGAUCCAACAACAAAGACAAAUCUGCCACAAAGCUUGAGAGCAUCUUCGGAACCAGAGGCGGCAGCCUUCGGUGGCGCGAUAGCGACAACGUUCACAACUAUGACACGCAAAACGCGUGCUCCGUUGAUUGGAGUUUAUCAUG [U15C A21C U61A G62C C95A U104A A138U],≤ -4.2
14,GGAUCUUCUCGAUCCAACAAAACAGACAAGUCUGCCACAAAGCAUGAGAGCAUCUUCGGAUGCAGAGGCAGCAGCCUUCGGUGGCGAGAUAGCGCCAACGUUCUCAACUAUGACACGCAAAACGCGUGCUCCGUUGAAUGCAGUUUAUCAUG [U15C A23C A30G U44A G70A C87A G141C],≤ -4.2
15,GGAUCUUCUCGAUCAAACAAAAAAGACAAAUCUGCCACAAAGCUUGAGAUCAUCUUCGGAUGCAGAGGCGGCAGCCUUCGGUGGCACGAUAGCGCCAACGUUCUCAACUAUGAUACGCAAAACGCGUGCUCCGUUGAAUGGAGUUUAUCAUG [U15A G50U G86A C114U],-3.13
16,GGAUCUUCUCGAUCCAACAAACAAGACAAAUCUGCAACAAAGCUUGAGAGCAUCUUCGGAUGCAGAGGCGGCAGCCUUCGGUGGCGCGAUAGCGCCAACGUUCUCGACUAUGACACGCAAAACGCGUGCUCCGUUGAAUGGAAUUUAUCAUG [U15C A22C C36A A106G G143A],≤ -4.2
17,GGAUCUUCUCGAUCCCACAAAAAAGACAAAUCUGCCACAAAGCUUGAGAGCAUCUUCGGAUGCAGAGGCGGCAGCCUUCGGUGGUGCGAUAGCGCCAACGUUCUCAACUAUGACACGAAAAACGCGUGCUCCGUUGAAUGGAGUUUAUCAUG [U15C A16C C85U C118A],-2.79
18,GGAUCUUCUCGAUCCAACAAAAAAGACAAAUCUGCCACAAAGCUUGCGAGCAUUUUCGGAUGCAGAGGCGGCAGCCUUCGGUGGCGCGUUAGCGGCAACGUUCUCAACUAUGACACGCAAAACGCGUGCUCCGUUGAAUGGAGUUUAUCAUG [U15C A47C C54U A89U C95G],-2.01
19,GGAUCUUCUCGAUCCAACAACAAAGACAAAUCUGCCACAAAGCUUGAGAGCAUCUCCGGAUGCAGAGGCGGCAGCCUUCGGUAGCGCGAUAGCGCCAACGUUCUCAACUAUGACACGCAAAACGCGUGCUCCGUUGAAUGGAGUUUAUCAUG [U15C A21C U56C G83A],-0.11
